Earlier results on 1 substance are cited in publication PMC2892843.

pKd: −log10 of the molar value.

One may read the pKd as the negative decadic logarithm of the Kd, by convention in mol/L.

In this series the target is NgR1 (UniProt Q9BZR6).
Chain of UniProt Q9BZR6 (Q9BZR6 27-447): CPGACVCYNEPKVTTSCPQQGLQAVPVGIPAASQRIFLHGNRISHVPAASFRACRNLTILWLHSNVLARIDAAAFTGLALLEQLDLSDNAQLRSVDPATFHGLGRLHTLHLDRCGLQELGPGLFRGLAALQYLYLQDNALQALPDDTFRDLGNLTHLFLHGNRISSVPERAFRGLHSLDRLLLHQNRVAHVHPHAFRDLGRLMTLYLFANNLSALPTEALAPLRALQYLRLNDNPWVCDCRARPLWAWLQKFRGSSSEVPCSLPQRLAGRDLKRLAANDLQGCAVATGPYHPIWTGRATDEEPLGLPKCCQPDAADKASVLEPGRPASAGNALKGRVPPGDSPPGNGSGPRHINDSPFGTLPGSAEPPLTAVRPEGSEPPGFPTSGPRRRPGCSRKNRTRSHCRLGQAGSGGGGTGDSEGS

For the substance MAG (from UniProt P20916), the pKd is 8.00.
